Here are results for 18 molecules from patent US20210380703A1 (RIGEL PHARMACEUTICALS, published 2021).

The target of one assay is T1, human ACVR2A (human, UniProt P27037 20-135, limits assumed).
T1 construct: also called activin receptor, type II A
Description: ELISA. In outline: (§1)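 Monoclonal antibodies were first applied to human or mouse ACVR2A, alongside biotinylated goat anti-human kappa light chain (positive control) and human Fc (negative control); binding was then determined by ELISA.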
Background: ELISA stands for enzyme-linked immunosorbent assay.

A further assay concerns the target mouse ACVR2A (mouse, UniProt P27038 20-135, limits assumed). Description: ELISA. The method, boiled down:
as §1

Assay [1] has as its target T2, biotinylated goat anti-human kappa light chain.
T2 construct: positive control of the ELISA
The assay is described as follows: ELISA, positive control. In outline: as §1
Note: test concentration or dose not given here.

Chain of mouse ACVR2A (P27038 20-135 limits assumed): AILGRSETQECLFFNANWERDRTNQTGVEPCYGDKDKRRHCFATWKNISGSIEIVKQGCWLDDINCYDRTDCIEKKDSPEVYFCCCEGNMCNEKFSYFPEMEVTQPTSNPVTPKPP
T1 sequence (P27037 20-135 limits assumed): as the sequence (P27038 20-135 limits assumed) above, with R20K, I73V counted along it

B1: 368_C04 (antibody, V domains shown)
VH: EVQLLESGGGLVQPGGSLRLSCAASGFTFDSYGMHWVRQAPGKGLEWVSNINYNGGYTSYADSVKGRFTISRDNSKNTLYLQMNSLRAEDTAVYYCARAATWHDTHLDYWGQGTLVTVSS
VL: DIQMTQSPSSLSASVGDRVTITCRASQSILSYVNWYQQKPGKAPKLLIYAATSRASGVPSRFSGSGSGTDFTLTISSLQPEDFATYYCQQSYSTPLTFGGGTKVEIK
notes: Group II
For the molecule B1, the optical density in the assay with human ACVR2A was 2.48 OD; with mouse ACVR2A it was 2.47 OD; in assay [1] it was 3.67 OD.

B2: 369_A12 (antibody, V domains shown)
VH: EVQLLESGGGLVQPGGSLRLSCAASGFTFSSYSMHWVRQAPGKGLEWVASINYNSGYTGYADSVKGRFTISRDNSKNTLYLQMNSLRAEDTAVYYCARAATWHDTHLDYWGQGTLVTVSS
VL: DIQMTQSPSSLSASVGDRVTITCRASQSILTYLNWYQQKPGKAPKLLIYAATSRHSGVPSRFSGSGSGTDFTLTISSLQPEDFATYYCQQSYDLPLTFGGGTKVEIK
notes: Group II
Consider B2, for which the results for the optical density (in the assay with human ACVR2A; with mouse ACVR2A; in assay [1]) were 3.17 OD, 3.24 OD and 3.72 OD, respectively.

B3: 368_C09 (antibody, V domains shown)
VH: EVQLLESGGGLVQPGGSLRLSCAASGFTFSSYSMHWVRQAPGKGLEWVSNINYNGGYTGYADSVKGRFTISRDNSKNTLYLQMNSLRAEDTAVYYCARAANWHDTHLDYWGQGTLVTVSS
VL: DIQMTQSPSSLSASVGDRVTITCRASQSILTYVNWYQQKPGKAPKLLIYAATSLASGVPSRFSGSGSGTDFTLTISSLQPEDFATYYCQQSYDLPLTFGGGTKVEIK
notes: Group I
In the case of B3, the figures for the optical density (in the assay with human ACVR2A; with mouse ACVR2A; in assay [1]) were 2.48 OD, 2.61 OD and 3.46 OD, respectively.

B4: 368_F02 (antibody, V domains shown)
VH: EVQLLESGGGLVQPGGSLRLSCAASGFTFSSYGMNWVRQAPGKGLEWVASINYNSGYTSYADSVKGRFTISRDNSKNTLYLQMNSLRAEDTAVYYCARAANWHDTHLDYWGQGTLVTVSS
VL: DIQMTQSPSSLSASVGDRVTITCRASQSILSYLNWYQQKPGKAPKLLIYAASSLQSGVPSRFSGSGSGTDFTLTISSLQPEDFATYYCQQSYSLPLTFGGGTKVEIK
notes: Group I
Regarding B4, the figures for the optical density (in the assay with human ACVR2A; in the assay with mouse ACVR2A; in assay [1]) were 2.18 OD, 2.27 OD and 3.65 OD, respectively.

B5: 368_F10 (antibody, V domains shown)
VH: EVQLLESGGGLVQPGGSLRLSCAASGFTFSSYGMNWVRQAPGKGLEWVAGINYNSGYTSYADSVKGRFTISRDNSKNTLYLQMNSLRAEDTAVYYCARAANWHDTHLDYWGQGTLVTVSS
VL: DIQMTQSPSSLSASVGDRVTITCRASQSIVSYVNWYQQKPGKAPKLLIYAATSRASGVPSRFSGSGSGTDFTLTISSLQPEDFATYYCQQSYDTPLTFGGGTKVEIK
notes: Group I
For the molecule B5, the results for the optical density (in the assay with human ACVR2A; with mouse ACVR2A; in assay [1]) were 2.25 OD, 2.6 OD and 3.52 OD, respectively.

B6: 368_E05 (antibody, V domains shown)
VH: EVQLLESGGGLVQPGGSLRLSCAASGFTFDSYSMHWVRQAPGKGLEWVSSINYNGGYKSYADSVKGRFTISRDNSKNTLYLQMNSLRAEDTAVYYCARAATWHDTHLDYWGQGTLVTVSS
VL: DIQMTQSPSSLSASVGDRVTITCRASQSILSYLNWYQQKPGKAPKLVIYAATSRASGVPSRFSGSGSGTDFTLTISSLQPEDFATYYCQQSYSSPLTFGGGTKVEIK
notes: Group II
Regarding B6, the figures for the optical density (with human ACVR2A; in the assay with mouse ACVR2A; in assay [1]) were 1.87 OD, 2.07 OD and 3.37 OD, respectively.

B7: 369_B03 (antibody, V domains shown)
VH: EVQLLESGGGLVQPGGSLRLSCAASGFTFSSYGMHWVRQAPGKGLEWVAGINYNGGYTSYADSVKGRFTISRDNSKNTLYLQMNSLRAEDTAVYYCARAANWHDTALDYWGQGTLVTVSS
VL: DIQMTQSPSSLSASVGDRVTITCRASQSILTYVNWYQQKPGKAPKLVIYAATSLASGVPSRFSGSGSGTDFTLTISSLQPEDFATYYCQQSYELPLTFGGGTKVEIK
notes: Group I
With B7, the values for the optical density (with human ACVR2A; with mouse ACVR2A; in assay [1]) were 3.32 OD, 3.31 OD and 3.52 OD, respectively.

B8: 369_A04 (antibody, V domains shown)
VH: EVQLLESGGGLVQPGGSLRLSCAASGFTFDSYGMHWVRQAPGKGLEWVASINYNGGYKSYADSVKGRFTISRDNSKNTLYLQMNSLRAEDTAVYYCARAATWHDTHLDYWGQGTLVTVSS
VL: DIQMTQSPSSLSASVGDRVTITCRASQSIVSYVNWYQQKPGKAPKLVIYAATSLASGVPSRFSGSGSGTDFTLTISSLQPEDFATYYCQQSYDLPLTFGGGTKVEIK
notes: Group II
Turning to B8, the optical density with human ACVR2A was determined as 2.76 OD; with mouse ACVR2A, 2.86 OD; in assay [1], 3.5 OD.

B9: 368_D09 (antibody, V domains shown)
VH: EVQLLESGGGLVQPGGSLRLSCAASGFTFDSYGMHWVRQAPGKGLEWVAGINYNSGYKSYADSVKGRFTISRDNSKNTLYLQMNSLRAEDTAVYYCARAANWHDTHLDYWGQGTLVTVSS
VL: DIQMTQSPSSLSASVGDRVTITCRASQSIVSYVNWYQQKPGKAPKLLIYAATSLASGVPSRFSGSGSGTDFTLTISSLQPEDFATYYCQQSYDNPLTFGGGTKVEIK
notes: Group I
B9: the optical density was found to be 2.19 OD with human ACVR2A, 2.11 OD in the assay with mouse ACVR2A and 3.46 OD in assay [1].

B10: 368_C12 (antibody, V domains shown)
VH: EVQLLESGGGLVQPGGSLRLSCAASGFTFDSYGMHWVRQAPGKGLEWVASINYNGGYTSYADSVKGRFTISRDNSKNTLYLQMNSLRAEDTAVYYCARAATWHDTHLDYWGQGTLVTVSS
VL: DIQMTQSPSSLSASVGDRVTITCRASQSILTYLNWYQQKPGKAPKLLIYAATSRASGVPSRFSGSGSGTDFTLTISSLQPEDFATYYCQQSDSNPLTFGGGTKVEIK
notes: Group II
On to B10, for which the values for the optical density (with human ACVR2A; with mouse ACVR2A; in assay [1]) were 2.49 OD, 2.45 OD and 3.62 OD, respectively.

B11: 368_E08 (antibody, V domains shown)
VH: EVQLLESGGGLVQPGGSLRLSCAASGFTFDSYGMHWVRQAPGKGLEWVANINYNSGYTGYADSVKGRFTISRDNSKNTLYLQMNSLRAEDTAVYYCARAATWHDTHLDYWGQGTLVTVSS
VL: DIQMTQSPSSLSASVGDRVTITCRASQSILSYVNWYQQKPGKAPKLVIYAATSLHSGVPSRFSGSGSGTDFTLTISSLQPEDFATYYCQQSYETPLTFGGGTKVEIK
notes: Group II
On to B11, for which the optical density amounted to 2.27 OD with human ACVR2A, 2.67 OD in the assay with mouse ACVR2A and 3.5 OD in assay [1].

B12: 369_B07 (antibody, V domains shown)
VH: EVQLLESGGGLVQPGGSLRLSCAASGFTFDSYGMHWVRQAPGKGLEWVANINYNGGYKSYADSVKGRFTISRDNSKNTLYLQMNSLRAEDTAVYYCARAATWHDTHLDYWGQGTLVTVSS
VL: DIQMTQSPSSLSASVGDRVTITCRASQSIVSYVNWYQQKPGKAPKLVIYAATSLASGVPSRFSGSGSGTDFTLTISSLQPEDFATYYCQQSYDLPLTFGGGTKVEIK
notes: Group II
Regarding B12, the optical density amounted to 2.63 OD with human ACVR2A, 2.9 OD with mouse ACVR2A and 3.39 OD in assay [1].

B13: 368_H03 (antibody, V domains shown)
VH: EVQLLESGGGLVQPGGSLRLSCAASGFTFDDYSMHWVRQAPGKGLEWVASINYNGGYTGYADSVKGRFTISRDNSKNTLYLQMNSLRAEDTAVYYCARAATWHDTHLDYWGQGTLVTVSS
VL: DIQMTQSPSSLSASVGDRVTITCRASQSILSYVNWYQQKPGKAPKLVIYAVTSRHSGVPSRFSGSGSGTDFTLTISSLQPEDFATYYCQQSYSNPLTFGGGTKVEIK
notes: Group II
Take B13: the optical density was 2.44 OD with human ACVR2A, 2.73 OD in the assay with mouse ACVR2A and 3.56 OD in assay [1].

B14: 368_D03 (antibody, V domains shown)
VH: EVQLLESGGGLVQPGGSLRLSCAASGFTFSDYSMHWVRQAPGKGLEWVASINYNGGYTSYADSVKGRFTISRDNSKNTLYLQMNSLRAEDTAVYYCARAATWHDTHLDYWGQGTLVTVSS
VL: DIQMTQSPSSLSASVGDRVTITCRASQSIITYVNWYQQKPGKAPKLLIYATTSRASGVPSRFSGSGSGTDFTLTISSLQPEDFATYYCQQSYDLPLTFGGGTKVEIK
notes: Group II
In the case of B14, the optical density came out at 2.39 OD with human ACVR2A, 2.55 OD with mouse ACVR2A and 3.49 OD in assay [1].

B15: 368_G11 (antibody, V domains shown)
VH: EVQLLESGGGLVQPGGSLRLSCAASGFTFDSYGMHWVRQAPGKGLEWVSGINYNSGYKSYADSVKGRFTISRDNSKNTLYLQMNSLRAEDTAVYYCARAATWHDTALDYWGQGTLVTVSS
VL: DIQMTQSPSSLSASVGDRVTITCRASQSILTYLNWYQQKPGKAPKLLIYAATSRASGVPSRFSGSGSGTDFTLTISSLQPEDFATYYCQQSDNTPLTFGGGTKVEIK
notes: Group II
For the molecule B15, the results for the optical density (in the assay with human ACVR2A; in the assay with mouse ACVR2A; in assay [1]) were 2.1 OD, 2.37 OD and 3.5 OD, respectively.

B16: 368_D06 (antibody, V domains shown)
VH: EVQLLESGGGLVQPGGSLRLSCAASGFTFSSYGMNWVRQAPGKGLEWVSNINYNGGYTGYADSVKGRFTISRDNSKNTLYLQMNSLRAEDTAVYYCARAATWHDTHLDYWGQGTLVTVSS
VL: DIQMTQSPSSLSASVGDRVTITCRASQSILSYVNWYQQKPGKAPKLVIYAATSRHSGVPSRFSGSGSGTDFTLTISSLQPEDFATYYCQQSYENPLTFGGGTKVEIK
notes: Group II
B16: the optical density with human ACVR2A worked out at 2.03 OD; in the assay with mouse ACVR2A, 2.11 OD; in assay [1], 3.41 OD.

B17: 368_C07 (antibody, V domains shown)
VH: EVQLLESGGGLVQPGGSLRLSCAASGFTFSSYGMHWVRQAPGKGLEWVAGINYNSGYTSYADSVKGRFTISRDNSKNTLYLQMNSLRAEDTAVYYCARAATWHDTHLDYWGQGTLVTVSS
VL: DIQMTQSPSSLSASVGDRVTITCRASQSIVSYVNWYQQKPGKAPKLVIYAATSRASGVPSRFSGSGSGTDFTLTISSLQPEDFATYYCQQSYENPLTFGGGTKVEIK
notes: Group II
For the molecule B17, the optical density with human ACVR2A was determined as 2.58 OD; in the assay with mouse ACVR2A, 2.37 OD; in assay [1], 3.31 OD.

B18: 368_D07 (antibody, V domains shown)
VH: EVQLLESGGGLVQPGGSLRLSCAASGFTFDSYGMHWVRQAPGKGLEWVASINYNGGYTGYADSVKGRFTISRDNSKNTLYLQMNSLRAEDTAVYYCARAATWHDTHLDYWGQGTLVTVSS
VL: not shown
notes: Group II
For B18, the results for the optical density (with human ACVR2A; with mouse ACVR2A; in assay [1]) were 2.2 OD, 2.46 OD and 3.26 OD, respectively.
